Test results published in article PMC9351184, “Survey of the binding preferences of RNA-binding proteins to RNA editing events”.

Assays:
ILF3 dsRBD = molecular target: T1, ILF3 dsRBD (Homo sapiens, UniProt Q12906 398-590); assay: EMSA; 1 uM labelled RNA, 3 uM protein, 10 ul, on ice 45 min; 6% PAGE in 0.5x TBE (gel pre-run at 4 C); binding buffer, salt and pH not stated (proteins dialyzed in 25 mM Tris-HCl pH 8.0, 150 mM NaCl; final elution from cation exchange/heparin up to 1 M NaCl, then SEC); settings: protein: recombinant; tags: N-terminal GST (pGood6p), removed with TEV; label: 5' DY781
T1 sequence: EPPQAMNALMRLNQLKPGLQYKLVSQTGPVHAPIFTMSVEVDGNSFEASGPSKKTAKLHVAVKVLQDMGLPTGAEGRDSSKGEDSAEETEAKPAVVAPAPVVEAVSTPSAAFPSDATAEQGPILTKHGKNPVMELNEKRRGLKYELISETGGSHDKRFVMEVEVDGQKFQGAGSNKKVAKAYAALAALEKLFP

hnRNPC dsRBD = hnRNPC dsRBD (Homo sapiens, UniProt P07910 16-57); assay: as above; settings: protein: recombinant; tags: 10xHis (pSUMOH10), removed with TEV; label: 5' DY781
Chain of hnRNPC dsRBD (P07910 16-57): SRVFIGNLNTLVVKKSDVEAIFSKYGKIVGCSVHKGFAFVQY

B1: edited RNA (ssRNA)
RNA: AGUGGCUUAUGCCUGUGAUCCCAACAC
modifications: A-to-I editing site represented by G as printed (A/G); inosine not stated
Which results are given for B1?
binding result (ILF3 dsRBD): binds; binding result (hnRNPC dsRBD): binds
